Assay [1] has as its target phosphorylated PD1 ITIM peptide. Kind of assay: ELISA; peptides coated at 0.5 µg/ml on Nunc MaxiSorp plates; His-tagged SH2 protein from 10 µg/ml with 1:3 serial dilutions in PBS 0.5% BSA; detected with anti-His-tag antibody, absorbance at 450 nm. (In general: In an ELISA, binding on a coated surface is turned into a signal by an enzyme label.)
Assay [2] concerns the target phosphorylated PD1 ITSM peptide. The assay is described as above.

Five substances from paper PMC10272835, “Exploration of T cell immune responses by expression of a dominant-negative SHP1 and SHP2” (Frontiers in Immunology, 2023) can be followed below.

In general, EC50 refers to the midpoint of the concentration-response curve. Low values mean greater potency, high ones weaker potency. For the substance “C-terminal SH2 domain of SHP1 (domain or fragment)”, the EC50 is 33.7 nM in assay [1] and 1.69 nM in assay [2].
For “dual SH2 domains of SHP1 (domain or fragment)” the same measures were 21.4 nM and 15.3 nM.
The like results for “dual SH2 domains of SHP2 (domain or fragment)” were, in that order, 1.69 nM and 1.24 nM.
Take “C-terminal SH2 domain of SHP2 (domain or fragment)”: the EC50 is 5.56 nM in assay [1] and 1.85 nM in assay [2].
On to “N-terminal SH2 domain of SHP2 (domain or fragment)”, for which the EC50 in assay [1] came out at 12 nM; in assay [2] it was 4.58 nM.
